This is an account of results in the domain aggregation screens of Martell et al. (2025).

The nature of this data set: soluble fraction after stress (log2 fold change); higher = more stays soluble; pooled small domains, quantitative proteomics. Particulars: stress: 50 degC. The method, boiled down: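 Each library was heated to 50°C as a stress step. The libraries, made up of small protein domains, were pooled and analysed at high throughput by quantitative proteomics. The reported value is the base-two logarithm of the fold change in each protein's soluble amount after stress, taken as a measure of aggregation propensity. The higher the value, the more protein stays in solution.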
“HMVAGQDPVKRQQILDGAKRVFLGVGFDAASMNDITREAGVSKGTIYVYFGSKEELFGALIDR”: the “soluble fraction (log2)” value is -0.663.
Turning to “HMRSWRDQRVDDLLAAVSELGMTMSRAAAGDLLDQRVEYVANQMRVTPATARKYLTEETLAGMAREIVFG”, the “soluble fraction (log2)” value was -0.693.
As to “HMVNINEVEVSRDLAHAKVFVTFVGDRTDEINTQALKVLNAAQGFLRSRIASNNHMRTTPRIHF”, the “soluble fraction (log2)” value is -0.663.
For the sequence “HMPPSGPWEQDPPSEAQLKPFNEAMKRTADIDVDLYEKAKKALNDGTITKGNIYDWINREDSPWVLQDGS”, the “soluble fraction (log2)” value came to 0.141.
Next, “HMGPDGLFAKFREPETGKDLLITQNVFVEQVLIKGVLTRTLTDAEANTYRAPFVNPEKRFPIYVWPNELP”: 0.142; “HMVNPHPVYRSWGLLYVEARDGDSLESIAKEFGFSVKKLAKYNEVPKDYPLEAGDIVYLEKKKK”: -1.59; “HMALPASLSPREREIVSLISQGKTNSEIASLLYISVPTVKTHISNIFQKTGVSNRTSLLNRLRMS”: -0.164.
“HMTSSQLNIEELERRMMMHLEQNGFITRSIYTNLTGRLKWKATEDLKIFVEKGLIRKMGRGNQMYYVKVE”: the “soluble fraction (log2)” value was -1.7.
The figure for “HMSNETLFEFFEKNISQLTPTLVDNINRSLAVHSKKNVKLAIMIAAKSNVRNWNYISAILNRWEKE” is -2.21; for “HMFNFPEEVRVQLAKSEQLRNLLIPMSETVRDALSGEELWFGRTIFNTTSKKIESWTNPGVWVE” it is -1.45.
Next, “HMAKIKVFELKNQINSLIKNKIESKDIIDFIETNFGVKKSHSSALEENEANFIKNYFVHADKA”: 0.195; “HMKLVELVGSPKQIAWAEDIRKNMISYLSALVRKYEAENRPARAEKRAKDMEILSNIKEASWFIENRS”: -0.661; “HMTIKTAFPAEDLAKPDNFKSLLYYFGLLTIRGTKWGSTLLAIPNLTVREQLYSYLVEAYRSADL”: 0.291.
Regarding “HMTRDGMTKEAFDSLLEDIMNILLDNGLKATTMGSIAKSLKMSKRTLYEIFSSKSQMVEEAIIASHTKMM”, the “soluble fraction (log2)” value was 0.15.
On to “HMYKLTYVVDGEVYLEETVSYGSKIAAAPAPEKEGYTFSGWEGLPEVMPAKDVTVSGSFTVN”, for which the “soluble fraction (log2)” value is -0.405.
As to “HMQELKWERNYKLVQDYIKQYGVLPSKNTKYANVSIGRWLTNQHELVKEDNLAPERFEKIKELDT”, the “soluble fraction (log2)” value was -0.233.
With “HMPTQTEELRRRIVADVNAGEPGAKLGSERELAERYGTSRSSLRQVLAALQEAGLIDRVIGRSGGIFISH”, the “soluble fraction (log2)” value is -0.0372.
For the sequence “HMEQMSLISKKKGERIDKFLGENLGDLSRSYIQKLLKDGLILVNGKKVKANYKLNEGDQIDVEVPDP”, the “soluble fraction (log2)” value came out at 0.303.
Next, “HMFDGRSDAEKTLDLIKTAIDNILKGGAIQEYKIGTRTAKKYDMAELQVLKGEYAAMVAREKQAETMA”: -0.132.
As to “HMSVDIIPGKADQKVRLIHDPAIVGVTTGGVKTAGPHTLIQIELGPNERPYKRLSLLELIPEG”, the “soluble fraction (log2)” value is -0.115.
The figure for “HMVLTGTIKKYNNERGFGFISTSNFGDVFFHIKDFQKGEQPIPGREVYFEVVKKENKKRAIHVYYSD” is -1.02; for “HMVEMPEVGVKVRIEVESHNGSTNFEGIVLHPASKGHLTLKLINGYNASYLIEEIRNLEIIDSS” it is -0.271.
As for “HMQPPLTPRELGVLQWAAEGKTTRDTSAILQIHQRTVEMHLKSAREKLDALNTTHAVARALAHGFILPPS”, the “soluble fraction (log2)” value is -0.0855.
As to “HMTDRINIGDVVTIISKDREDSQIVYMRYHKGKLSILGELILNKTKNDTVDFKGRTYDIATIEKS”, the “soluble fraction (log2)” value is -1.83.
Turning to “HMGGWEEGVYVVREGDTLSDIVHDAVKGTEIHPDFILNAIVRVNPSAFVRGNPSWMLAGKKIK”, the “soluble fraction (log2)” value was -0.0469.
On to “HMATGGKIYIGMNDNGKVVGVSDADKLLEDIPNKVRDVLGIIVDVNLLEENGLKYIEIDVPPYSN”, for which the “soluble fraction (log2)” value is -0.585.
The figure for “HMLWTHIALPVRSLDDTMAFYDKYTTLENIHERQDPETNMRSVWLANPGDKTEQAARFVLVLI” is -0.116; for “HMLPDLQESIDELLNIVDQRLNTSFEELVSGVNTTEKAIAFFLALLETIKWGFIKAEQTNNENKINIEKNY” it is 0.0699.
Next, “HMFYPIAHTLTKLNIRSGPGEQYQKLATFENNHDLVVLTQQNEWVQVRGKSDEQVIIGWVHSSFLSPT”: -1.09; “HMLLNTSQLKELYNRYDKKNSSLISIPFSAISDEPLKFYKWYAALFQIELNVKAFADVDSKQIIIYKGTK”: -2.51.
For the sequence “HMTNVETLVRMRLRSIRTTLGYSLDEIAERSNLSASTVSRIETGKRALSIDVLVPLAAALQVSVDDLLRAE”, the “soluble fraction (log2)” value is -2.43.
The figure for “HMGSTDTLEDALEAAEKISYPVIIKATAGGGGRGMKVASSLEELKKVYHTTKLEAKNAFGNDQVYIEKYL” is 0.116; for “HMAAADLNMRAKLADLGGMSYGELSIWEKTHGMEFAAWEHEWEKLNSGTQADGLKFPKHLPEGFPT” it is 0.0468; for “HMNSKSDDELLSKTTSLLIHAAKIDENYTDKEKEIIKKTLIQLGVKESKADQIMLTAEINEE” it is no less than 0.62.
As for “HMSTDDILSSITALRLASVQFQLGQFDPALDSLKLVKEQAWSGAKNILAGDIQLAKGDKEAAKASYQQAQQ”, the “soluble fraction (log2)” value is -0.38.
As for “HMLAEEDRRRAERPGLDGNAVMVHLGIGPGRHVGEALAFLLEVRRSEGDLAVAELKSRIDAWWADR”, the “soluble fraction (log2)” value was -2.59.
With “HMAAEIGSGVVDAYDLRLRSQPSTDAETIIYLDNGAKLSVQEDLGDWYKVVSGTYTGYVSAEYVAYTPSPE”, the “soluble fraction (log2)” value was -1.13.
For “HMTGQVASMVERLAQRLKDQPQDAEGWAMLARSYSVLGRHPEALQAYEKALALRKDDANLLADYADSLA”, the “soluble fraction (log2)” value was -0.087.
For the sequence “HMQENDLGAVEKIVDDVLHDPKNAQAVADFKAGSEKVLGFLTGQVMKASRGKANPSVVQEVLRQKLKN”, the “soluble fraction (log2)” value was -0.00966.
As for “HMQDAVASEKIQLMSEALHARDTGDLLLAKEKVEKLIALAPNDKNIQALLLTINQSIEDKGL”, the “soluble fraction (log2)” value was determined as 0.101.
Next, “HMQVTDADFDQIRLAVLSQLKQNSLTVAELLKIIPFKEQKVMPVIRFLIDNRVLEHGTDMKLTVGNSVK”: 0.0195.
Next, “HMNTPAENFDKAVEKYKSTNSATEKDAAFKVIEDEWIKLSDEEKKERQDEYDSIFESEGDRV”: 0.126; “HMLVSVSNYLGQNVDTVKSDLEALGLVVKLKEQQTDRESENGAVLEQSIEGGSKVSAGTPITLTYGK”: 0.187.
For the sequence “HMAHILDLMELKQILRLHMDGLSNRRISDTLGIHRNTINSYVSQFKASKHGIEELLKLSDYELAQLFP”, the “soluble fraction (log2)” value was -2.26.
In the case of “HMLAIELDDKPGSLLRALEIFAKRNLNIEYMYAFTEKRGDKAVMIFKFSDIETAKKSLLEEGFN”, the “soluble fraction (log2)” value is -1.64.
Turning to “HMIGILSDREAEILALLDEGLTNKAIGRRLNLAEPTVKFHLKNLYAKLGVGRRQLAVNVAKGSGLLNSD”, the “soluble fraction (log2)” value was -0.699.
Turning to “HMPKPMKATKITLQQEPRIRVDFTYDPLKVQQIKTISGARWSKSLKAWHIPYTKEAFNQLKKLFPNVEIEV”, the “soluble fraction (log2)” value was -0.166.
Next, “HMQLGQMIVKLRKEQGLTQETFAKKFNVTRQTVSNWENEKSYPDLHTLVKISDEFHLSLDILLK”: -2.8; “HMEKVTPEMIAEYNALAKKYNSNPEVVFKKKEIQRLKYIYSLMSEKQKETAEVFPNIPPPPPT”: -0.234.
As to “HMAKTALEQAQAMVAAYVAAEQQILLGKEVRMGGPGIDRWLRFEDLQEVRAGRKEWESTVTRLQNTAA”, the “soluble fraction (log2)” value was -0.404.
Take “HMDDVIDVYATYDKSAEGVLSNIQLFSNQKKTTPITPESGKIYIDVEGNYQFRWTGTQYATV”: the “soluble fraction (log2)” value is -0.111.
Regarding “HMQKLNIEEQIVYDIIFKNKELSANEIQIKSGIKTSILNALLINLEIKQYIKLKFGNFYEIK”, the “soluble fraction (log2)” value was determined as 0.209.
Next, “HMNTVSPAVSAQLRQELGGELNNANFQQLQQYLQAGQRDEAIVYLTSLGIESPRAVSIVNNAMDQIG”: 0.124.
The figure for “HMSYGDLTGRTVVITGASKGIGARASRVLAQAGASVVGLARSVDELTALKYDLENDGLSFDFG” is no less than 0.62.
Consider “HMKKLPEKFDYNEISGLRIEAQQKLNEFQPLNIGQASRISGVTPADISVLLVYLEQLKYSNPDLFFKLNPD”, for which the “soluble fraction (log2)” value was -0.798.
In the case of “HMEIHIGSLIKEKMEERGLSVSDFAHALHYERTNIYKIFKRSSIDVDLLLRISEVLAYDFLREVYL”, the “soluble fraction (log2)” value was -2.63.
With “HMDPYEYQLELEKLINNATELNKKYNYDPLKDKILAADAVKNSLETYVLQNYIVALENEIKQTLNQYQIL”, the “soluble fraction (log2)” value was -0.44.
For the sequence “HMDSADADLLRRIEDLLSSRRSVIREARLADMLGVPRDQVARALDLLQERGVIGLTTDSGMKRIAFRRN”, the “soluble fraction (log2)” value is -0.0756.
The figure for “HMTEPLTKREKEVLLLLPRGLTAKAMASELFLTEATIKSHLAAIFRKFKVVNRTQAIAIAVESKILT” is -2.33; for “HMTKYREVLRMSAGGFSQRVIASTLSISRNTVASTLKRAREQNLDWEAVEQQRLSEKDIANLLFP” it is -0.996.
Next, “HMQNSLKAFRVKRGLTTSALSRLTNGEFSTSRISNYETGVRALTIDAAKKLAPHLGASPAQLLNL”: -0.357; “HMDYGSLQRAIENQLEVRNYQKPKKFLTKIIQLMETIMVRHGVMVVGLTGTGKTTVIETLSRSMEQ”: -0.302; “HMNAFEIYPNPASNLIRIDAEFTVAKIFSQTGNLIQTSTTKEIDVYNLANGIYFVKLDDSPSMVKFVIN”: -0.705.
Consider “HMADVIKLVNTSVLNVRSGAGINYSKIGSLTQGTKVNIISESNGWSKINYNGKIGYISSQYVSEVS”, for which the “soluble fraction (log2)” value was -0.206.
Regarding “HMGEESIAELISNPKLSDAKRTVILDLLSRGLTVDQIKPYIQSDDPYTAEQLQFELYKLFFTQI”, the “soluble fraction (log2)” value was -0.228.
Take “HMSLGPNAYGKPATALNILRETVMGKELFDHAFKTYSKRWMFKHPSPEDFFRTMEDASAVDLDWFWR”: the “soluble fraction (log2)” value is -0.239.
In the case of “HMANKTISMTTLKLVIQQLSKGISRQSISAQYHISRNTIKKYEKRIKAMDMKIEDILKLSDEEISNLLQ”, the “soluble fraction (log2)” value is -1.68.
Next, “HMAIADQPISAEHFDKLRQVLNSNTQETIASAKQHWASISNNAEFTNENVTRTLLEEMLAFIKSAS”: 0.307.
Regarding “HMAEPRVQEVYFEFDGKQVEAGQVVSLIEQAYKNEGHQIGRIKDLKVYINSEEGKAYYVINGDDGEGKYIE”, the “soluble fraction (log2)” value is 0.0517.
